From publication PMC2722044

Tests used:
[1] = target: VLRB.2D, lamprey variable lymphocyte receptor B specific for hen egg white lysozyme (lamprey); experiment: ITC
[2] = target: VLRB.2DMut13, in vitro affinity-matured variant of VLRB.2D (lamprey); experiment: ITC

- Kd [1]: 430 nM
- Kd [2]: 34 nM
Substance: hen egg white lysozyme (from UniProt P00698 19-147) (enzyme)
